From PMC8486122 (2021)

Molecular target: RTX751 (ACT residues 751–1706) (Bordetella pertussis, UniProt P0DKX7 751-1706)
Experiment: SPR

RTX751 (ACT residues 751–1706), sequence (P0DKX7 751-1706): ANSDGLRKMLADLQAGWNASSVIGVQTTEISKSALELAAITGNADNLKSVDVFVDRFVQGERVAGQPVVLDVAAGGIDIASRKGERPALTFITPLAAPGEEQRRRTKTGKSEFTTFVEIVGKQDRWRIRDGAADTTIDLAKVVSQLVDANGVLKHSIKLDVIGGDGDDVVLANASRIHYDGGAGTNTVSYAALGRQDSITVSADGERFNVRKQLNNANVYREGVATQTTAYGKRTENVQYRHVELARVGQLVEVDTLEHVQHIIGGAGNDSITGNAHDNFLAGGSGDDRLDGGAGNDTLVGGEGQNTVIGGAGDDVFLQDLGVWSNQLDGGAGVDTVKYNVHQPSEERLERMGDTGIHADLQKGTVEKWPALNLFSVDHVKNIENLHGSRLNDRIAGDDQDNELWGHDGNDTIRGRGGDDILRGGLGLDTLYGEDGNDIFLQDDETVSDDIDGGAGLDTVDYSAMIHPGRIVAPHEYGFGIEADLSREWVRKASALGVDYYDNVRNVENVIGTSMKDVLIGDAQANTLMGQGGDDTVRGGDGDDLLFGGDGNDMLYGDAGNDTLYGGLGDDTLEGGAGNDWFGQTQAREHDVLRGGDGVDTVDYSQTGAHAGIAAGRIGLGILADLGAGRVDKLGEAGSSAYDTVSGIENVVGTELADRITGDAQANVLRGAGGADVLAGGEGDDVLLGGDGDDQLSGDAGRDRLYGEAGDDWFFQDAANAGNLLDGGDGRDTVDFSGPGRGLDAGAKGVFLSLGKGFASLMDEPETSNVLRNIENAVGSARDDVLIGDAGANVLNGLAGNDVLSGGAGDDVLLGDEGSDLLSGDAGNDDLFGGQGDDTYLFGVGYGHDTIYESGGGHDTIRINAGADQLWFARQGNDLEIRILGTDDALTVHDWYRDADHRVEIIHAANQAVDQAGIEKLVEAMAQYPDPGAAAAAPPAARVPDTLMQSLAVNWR

Binder	koff [s⁻¹]
M2B10 Fab (Fab, V domains shown) VH: EVQLQQSGAELVRPGTSVKVSCKASGYAFTNYLIEWVKQRPGQGLEWIGVINPGIGNTNYNEKFKGKATLTADKSSSTVYMQLSSLTSDDSAVYFCARGLNYGSSQHWYFDVWGAGTSVTVSS VL: IVMTQSPAILSASLGERVTMTCTASSSVSSSYLHWYQQKPGSSPKLWIYSTSNLASGVPARFSGSGSGTSYSLTISSMEAEDAATYYCHQYHRSPPTFGAGTKLEIK	0.00121
M1H5 Fab (Fab, V domains shown) VH: EVNLVESGGDLVKPGGSLKLSCAASGFTFSSYGMSWVRQTPDKRLEWVATISSGGTYTYYPDSVKGRFTISRDNAKNTLYLQMSSLKSEDTAMYYCAREIMRGGGYYFDYWSQGTTLTVSS VL: DIQMIQSTSSLSASLGDRVTISCRASQDISNYLNWYQQKPDGTVKLLIYYTSRLHSGVPSRFSGSGSGTDYSLTISNLEQEDIATYFCQQGNTLPYTFGGGTKLEIK	0.00102
